Test results taken from patent US20060046277.

Key:
[1] = tested on: Abl kinase substrate (GST fusion, Table 2) [GST: P08515]
[2] = tested on: EGFR kinase substrate (GST fusion, Table 2) [GST: P08515]
[3] = tested on: GST-EGFR×3 [GST: P08515]
[4] = tested on: CK2 kinase substrate (GST fusion, Table 2) [GST: P08515]
[5] = tested on: GST-CK2×4 [GST: P08515]
[6] = tested on: IKK kinase substrate (GST fusion, Table 2) [GST: P08515]
[7] = tested on: AMPK kinase substrate (GST fusion, Table 2) [GST: P08515]
[8] = tested on: GST-Z1-AMPK×3 [GST: P08515]
[9] = tested on: GST-Z2-AMPK×3 [GST: P08515]
[10] = tested on: T1, GST-Abl×1
T1 sequence: AIYAAPF

[11] = tested on: T2, GST-Z2-Abl×1
T2 sequence: AIYAAPF

[12] = tested on: ERK kinase substrate (GST fusion, Table 2) [GST: P08515]
[13] = tested on: GST-JNK3×3 [GST: P08515]
[14] = tested on: GST-JNK3×8 [GST: P08515]
[15] = tested on: JNK3 kinase substrate (GST fusion, Table 2) [GST: P08515]
[16] = tested on: CK1 kinase substrate (GST fusion, Table 2) [GST: P08515]
[17] = tested on: GST-CK1×4 [GST: P08515]
[18] = tested on: Src kinase substrate (GST fusion, Table 2) [GST: P08515]
[19] = tested on: dsDNAPK kinase substrate (GST fusion, Table 2) [GST: P08515]
[20] = tested on: CHK kinase substrate (GST fusion, Table 2) [GST: P08515]
[21] = tested on: GST-CHK×5 [GST: P08515]
[22] = tested on: GST-Z2-Src×2 [GST: P08515]
[23] = tested on: GST-Z1-PKA [GST: P08515]
[24] = tested on: PKA kinase substrate (GST fusion, Table 2) [GST: P08515]
[25] = tested on: GST-IKK×4 [GST: P08515]
[26] = tested on: GST-IKK×7 [GST: P08515]
[27] = tested on: GST-Z1-dsDNA×4 [GST: P08515]
[28] = tested on: T3, GST-dsDNA×1
T3 sequence: GGGEETQTQDQPMEEEEV

[29] = tested on: GST-dsDNA×2 [GST: P08515]
[30] = tested on: GST-dsDNA×3 [GST: P08515]
[31] = tested on: GST-dsDNA×4 [GST: P08515]

Chain of JNK3 (P53779 whole entry): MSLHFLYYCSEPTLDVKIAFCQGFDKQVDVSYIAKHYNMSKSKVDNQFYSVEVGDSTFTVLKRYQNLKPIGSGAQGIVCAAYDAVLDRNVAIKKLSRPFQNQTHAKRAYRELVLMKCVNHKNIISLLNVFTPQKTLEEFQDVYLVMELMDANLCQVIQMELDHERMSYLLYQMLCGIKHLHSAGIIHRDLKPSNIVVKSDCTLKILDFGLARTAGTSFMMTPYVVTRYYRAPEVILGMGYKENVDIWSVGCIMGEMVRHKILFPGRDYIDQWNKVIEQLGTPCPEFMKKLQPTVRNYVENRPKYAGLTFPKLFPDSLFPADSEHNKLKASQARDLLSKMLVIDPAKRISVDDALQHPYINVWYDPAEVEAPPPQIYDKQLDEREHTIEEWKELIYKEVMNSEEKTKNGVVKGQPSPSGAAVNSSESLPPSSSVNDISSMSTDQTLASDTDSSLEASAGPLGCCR

EGFR
Reactivity for each of the Kinase Substrates (32P phosphorylation, autoradiogram) [1]: +++++ | Reactivity for each of the Kinase Substrates (32P phosphorylation, autoradiogram) [2]: +++++ | phosphorylation in the 4-member substrate ladder on beads (32P-ATP, SDS-PAGE, autoradiogram; FIG. 12) [3]: All of the protein kinase substrates reacted with their corresponding kinases, and cross-reactivity with other substrate was minimal | phosphorylation of the substrate on beads (32P-ATP, SDS-PAGE, autoradiogram; FIG. 6) [3]: All of the protein kinase substrates reacted with their corresponding kinases

CK2
Reactivity for each of the Kinase Substrates (32P phosphorylation, autoradiogram) [4]: +++++ | phosphorylation of the substrate on beads (32P-ATP, SDS-PAGE, autoradiogram; FIG. 6) [5]: All of the protein kinase substrates reacted with their corresponding kinases | Reactivity for each of the Kinase Substrates (32P phosphorylation, autoradiogram) [6]: +

AMPK
Reactivity for each of the Kinase Substrates (32P phosphorylation, autoradiogram) [7]: +++++ | phosphorylation of the substrate on beads (32P-ATP, SDS-PAGE, autoradiogram; FIG. 6) [8]: All of the protein kinase substrates reacted with their corresponding kinases | phosphorylation of the substrate on beads (32P-ATP, SDS-PAGE, autoradiogram; FIG. 6) [9]: All of the protein kinase substrates reacted with their corresponding kinases

Abl
Reactivity for each of the Kinase Substrates (32P phosphorylation, autoradiogram) [7]: +++ | Reactivity for each of the Kinase Substrates (32P phosphorylation, autoradiogram) [1]: +++++ | Reactivity for each of the Kinase Substrates (32P phosphorylation, autoradiogram) [2]: +++++ | phosphorylation of the substrate on beads (32P-ATP, SDS-PAGE, autoradiogram; FIG. 6) [10]: All of the protein kinase substrates reacted with their corresponding kinases | phosphorylation of the substrate on beads (32P-ATP, SDS-PAGE, autoradiogram; FIG. 6) [11]: All of the protein kinase substrates reacted with their corresponding kinases

JNK3
Reactivity for each of the Kinase Substrates (32P phosphorylation, autoradiogram) [12]: + | phosphorylation of the substrate on beads (32P-ATP, SDS-PAGE, autoradiogram; FIG. 6) [13]: All of the protein kinase substrates reacted with their corresponding kinases | phosphorylation in the 4-member substrate ladder on beads (32P-ATP, SDS-PAGE, autoradiogram; FIG. 12) [14]: All of the protein kinase substrates reacted with their corresponding kinases, and cross-reactivity with other substrate was minimal | phosphorylation of the substrate on beads (32P-ATP, SDS-PAGE, autoradiogram; FIG. 6) [14]: All of the protein kinase substrates reacted with their corresponding kinases | Reactivity for each of the Kinase Substrates (32P phosphorylation, autoradiogram) [15]: +++++

CK1
Reactivity for each of the Kinase Substrates (32P phosphorylation, autoradiogram) [16]: +++++ | phosphorylation of the substrate on beads (32P-ATP, SDS-PAGE, autoradiogram; FIG. 6) [17]: All of the protein kinase substrates reacted with their corresponding kinases | Reactivity for each of the Kinase Substrates (32P phosphorylation, autoradiogram) [6]: + | Reactivity for each of the Kinase Substrates (32P phosphorylation, autoradiogram) [18]: +++++ | Reactivity for each of the Kinase Substrates (32P phosphorylation, autoradiogram) [19]: +++++

CHK
Reactivity for each of the Kinase Substrates (32P phosphorylation, autoradiogram) [20]: +++++ | phosphorylation of the substrate on beads (32P-ATP, SDS-PAGE, autoradiogram; FIG. 6) [21]: All of the protein kinase substrates reacted with their corresponding kinases

Src
Reactivity for each of the Kinase Substrates (32P phosphorylation, autoradiogram) [7]: +++ | Reactivity for each of the Kinase Substrates (32P phosphorylation, autoradiogram) [1]: +++++ | Reactivity for each of the Kinase Substrates (32P phosphorylation, autoradiogram) [16]: +++++ | phosphorylation in the 4-member substrate ladder on beads (32P-ATP, SDS-PAGE, autoradiogram; FIG. 12) [22]: All of the protein kinase substrates reacted with their corresponding kinases, and cross-reactivity with other substrate was minimal | phosphorylation of the substrate on beads (32P-ATP, SDS-PAGE, autoradiogram; FIG. 6) [22]: All of the protein kinase substrates reacted with their corresponding kinases | Reactivity for each of the Kinase Substrates (32P phosphorylation, autoradiogram) [15]: + | Reactivity for each of the Kinase Substrates (32P phosphorylation, autoradiogram) [18]: +++++

PKA
phosphorylation of the substrate on beads (32P-ATP, SDS-PAGE, autoradiogram; FIG. 6) [23]: All of the protein kinase substrates reacted with their corresponding kinases | Reactivity for each of the Kinase Substrates (32P phosphorylation, autoradiogram) [24]: +++++ | Reactivity for each of the Kinase Substrates (32P phosphorylation, autoradiogram) [18]: +++++ | Reactivity for each of the Kinase Substrates (32P phosphorylation, autoradiogram) [19]: +++++

IKK
Reactivity for each of the Kinase Substrates (32P phosphorylation, autoradiogram) [16]: +++++ | Reactivity for each of the Kinase Substrates (32P phosphorylation, autoradiogram) [12]: + | phosphorylation of the substrate on beads (32P-ATP, SDS-PAGE, autoradiogram; FIG. 6) [25]: All of the protein kinase substrates reacted with their corresponding kinases | phosphorylation in the 4-member substrate ladder on beads (32P-ATP, SDS-PAGE, autoradiogram; FIG. 12) [26]: All of the protein kinase substrates reacted with their corresponding kinases, and cross-reactivity with other substrate was minimal | phosphorylation of the substrate on beads (32P-ATP, SDS-PAGE, autoradiogram; FIG. 6) [26]: All of the protein kinase substrates reacted with their corresponding kinases | Reactivity for each of the Kinase Substrates (32P phosphorylation, autoradiogram) [6]: +++++ | Reactivity for each of the Kinase Substrates (32P phosphorylation, autoradiogram) [15]: + | Reactivity for each of the Kinase Substrates (32P phosphorylation, autoradiogram) [18]: +

dsDNA (DNAPK)
phosphorylation of the substrate on beads (32P-ATP, SDS-PAGE, autoradiogram; FIG. 6) [27]: All of the protein kinase substrates reacted with their corresponding kinases | phosphorylation by dsDNA PK (32P ATP, SDS-PAGE, autoradiogram; FIG. 7) [28]: autoradiogram of phosphorylated GST-dsDNA kinase peptide substrate fusion proteins with different number of the peptide repeats | phosphorylation by dsDNA PK (32P ATP, SDS-PAGE, autoradiogram; FIG. 7) [29]: autoradiogram of phosphorylated GST-dsDNA kinase peptide substrate fusion proteins with different number of the peptide repeats | phosphorylation by dsDNA PK (32P ATP, SDS-PAGE, autoradiogram; FIG. 7) [30]: autoradiogram of phosphorylated GST-dsDNA kinase peptide substrate fusion proteins with different number of the peptide repeats | phosphorylation by dsDNA PK (32P ATP, SDS-PAGE, autoradiogram; FIG. 7) [31]: autoradiogram of phosphorylated GST-dsDNA kinase peptide substrate fusion proteins with different number of the peptide repeats | Reactivity for each of the Kinase Substrates (32P phosphorylation, autoradiogram) [24]: +++++ | Reactivity for each of the Kinase Substrates (32P phosphorylation, autoradiogram) [19]: +++++
